Molecular target: mini-procollagen III
Assay: SPR
Details: 50 nM CUB1CUB2*, read off a plot; for response: immobilized mini-procollagen III (437 RU), parent: est. 31; for percent of parent (% binding / WT): immobilized mini-procollagen III (437 and 651 RU), parent: est. 100

CUB1CUB2* domains of PCPE-2, WT (from MBP-CUB1CUB2, MBP removed), sequence (Q9UKZ9 whole entry, looked up, stated change not applied, tested part not stated): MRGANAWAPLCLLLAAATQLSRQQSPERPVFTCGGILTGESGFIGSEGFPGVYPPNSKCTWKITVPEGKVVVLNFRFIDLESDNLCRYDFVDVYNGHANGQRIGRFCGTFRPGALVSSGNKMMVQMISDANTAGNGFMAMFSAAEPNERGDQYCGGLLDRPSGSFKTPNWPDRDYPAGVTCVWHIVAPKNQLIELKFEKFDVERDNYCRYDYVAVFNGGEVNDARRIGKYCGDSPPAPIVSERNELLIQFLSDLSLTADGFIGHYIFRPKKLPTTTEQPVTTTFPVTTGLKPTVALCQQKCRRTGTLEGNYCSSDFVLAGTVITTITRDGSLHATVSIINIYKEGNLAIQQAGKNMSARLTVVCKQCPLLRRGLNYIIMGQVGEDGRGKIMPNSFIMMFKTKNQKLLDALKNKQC

| Substance | response | percent of parent (% binding / WT) |
| --- | --- | --- |
| CUB1CUB2* domains of PCPE-2, WT (from MBP-CUB1CUB2, MBP removed) (from UniProt Q9UKZ9) R150A | 27 RU | 97 |
| CUB1CUB2* domains of PCPE-2, WT (from MBP-CUB1CUB2, MBP removed) (from UniProt Q9UKZ9) F87A | 1 RU | 2 |
| CUB1CUB2* domains of PCPE-2, WT (from MBP-CUB1CUB2, MBP removed) (from UniProt Q9UKZ9) K46A; E197A; R220A | 8.5 RU | 22 |
